Test results published in patent US20220265772A1, “USES OF DAN FAMILY BMP ANTAGONISTS FOR INHIBITING OCULAR NEOVASCULARIZATION AND TREATING OCULAR CONDITIONS” (9636137 Canada Inc., priority 2019, published 2022).

What was measured:
LDHA = test: AMPLI-seq transcriptome analysis of HUVECs; assay type: cell-based, human; settings: HUVECs treated for 6 and 16 h
Experimental: FIG. 7 is a panel with a schematic and graphs showing that DAND5 modifies the metabolic transcriptional program in cultured endothelial cells. HUVECs were treated for 6 and 16 h with either PBS or DAND5, before RNA extraction. RNA was reverse-transcribed and cDNA amplified using IonTorrent Ampliseq™ Transcriptome Human Gene Expression kit. FIG. 7A: Heat map of metabolism-related genes.
We performed AMPLI-seq analysis of HUVECs exposed or not to recombinant DAND5. […] Lactate de-hydrogenase A (LDHA) regulates lactate metabolism during anaerobic respiration.

mitochondria = test: Immunofluorescence localization of DAND5 in treated HUVECs; assay type: cell-based, human; settings: HUVECs exposed for 1 h
Experimental: FIG. 9: HUVECs were plated to confluence and exposed or not to Dand5 for 1 hour. Dand5 was not detected before treatment in HUVECs (not shown).
To test where DAND5 is localizes in treated HUVECs, we exposed HUVECs to human recombinant DAND5 for 1 h and performed immune-fluorescence using human anti-mitochondrial antigen antibody and a human anti-DAND5 antibody.

[1] = system: choroidal neovascularization; test: Laser-induced choroidal neovascularization (CNV); assay type: in vivo, mouse
Experimental: Three-month-old C57BL/6J mice were anesthetised with a ketamine/xylazine mix prior to applying a photocoagulating laser (400 mW intensity, 0.05 s exposure time). Four spots were burned around the optical nerve. Mice received 100 ng of recombinant human DAND5 intravitreally or similar volume of vehicle in the contralateral eye. Eyes were enucleated after 14 days and processed for immunostaining.
Ocular globes were initially fixed for 15 min in 4% paraformaldehyde (PFA). Retinas or choroids were collected after eyes dissection in PBS and blocked 1 h in PBS 3% BSA 0.1% Triton X-100™. Fixation was prolonged in 1% PFA overnight for choroid extraction or eyes sectioning. […] Quantitative analysis of tufts, vaso-obliterated or vessel areas were performed using imageJ/Swift_NV™ as previously described (1). Neovascular tuft formation was quantified by comparing the number of pixels in the affected areas with the total number of pixels in the retina. The avascular area in the retina was measured in the same way using an anti-DAND5/COCO polyclonal goat IgG antibody (AF3047, R&D systems).
The effects of DAND5 on choroidal neovascularization (CNV) were also evaluated by subjecting mice to laser-induced CNV, a model which recapitulates the CNV occurring in wet AMD patients. […]

[2] = system: retinal vessels and photoreceptors; assay type: in vivo, mouse
Description: FIG. 4 is a panel with a schematic, images and bar graphs showing that chronic intravitreal injections of Dand5 inhibits developmental angiogenesis but is not detrimental to photoreceptor survival. FIG. 4A: Schematic representation of experimental set-up (B-E). Neonatal pups received intravitreal injections of either PBS, Dand5, Flt1-Fc on P1, P7 and P14. Retinas were harvested on P28. FIG. 4B: Isolectin B4 staining of flatmount retinas (P28) described in FIG. 3A. FIG. 4C: Quantification of branch points and vessel length in retinas described in FIG. 3B (n=6 mice/group; *p<0.05, **p<0.01). FIG. 4D: Immunofluorescent images of sectioned retinas described in FIG. 3A stained with antibodies against s-opsin and rhodopsin and DAPI (nuclei). FIG. 4E: Quantification of the number of nuclei present in the outer nuclear layer of retinas treated as described in (4A) (n=4, ns). Patients affected by ocular neovascular diseases such as retinopathy of prematurity (ROP) and wet AMD are typically treated with VEGF inhibitors to control pathological angiogenesis. […] Particularly, studies have shown that long-term treatment with VEGF inhibitors in mice leads to increased photoreceptor apoptosis and thinning of the neural retina (4). We therefore addressed the long-term effects of DAND5 on photoreceptors and the neural retina. […]

B1: DAND5: human recombinant DAND5/COCO biologically active fragment produced in E. coli, predicted 18.2 kDa monomer, R&D systems 3047-CC-050 (protein)
chain: MRPEPQSPRPQSWAAANQTWALGPGALPPLVPASALGSWKAFLGLQKARQLGMGRLQRGQDEVAAVTLPLNPQEVIQGMCKAVPFVQVFSRPGCSAIRLRNHLCFGHCSSLYIPGSDPTPLVLCNSCMPARKRWAPVVLWCLTGSSASRRRVKISTMLIEGCHCSPKA
LDHA expression (LDHA): down-regulation of LDHA
co-localization with mitochondria (mitochondria): robust co-localization of DAND5 with mitochondria
co-localization with mitochondria (mitochondria; listed as Dand5): co-localizes with mitochondria
inhibitory effect on retinal and choroidal neovascularization compared with Flt1Fc ([1]; OIR and laser-induced CNV together): significantly better than VEGF inhibition with Flt1Fc
area of CNV ([1]; laser impact, intravitreal delivery, 14 days, compared with controls): significant decrease in the area of CNV
photoreceptor apoptosis (cleaved-caspase 3 staining) ([2]; mouse, in vivo): did not reveal significant apoptosis
retinal blood vessel formation / density of retinal vessels ([2]; repeated injections from P1 for 4 weeks): striking reduction in blood vessel formation
